Measured values reported in publication PMC11063404, “Classical and novel properties of Holliday junction resolvase SynRuvC from Synechocystis sp. PCC6803”.

Target: T1, SynRuvC E75A (Synechocystis sp. PCC6803, UniProt Q55506 1-167, E75A)
T1 sequence: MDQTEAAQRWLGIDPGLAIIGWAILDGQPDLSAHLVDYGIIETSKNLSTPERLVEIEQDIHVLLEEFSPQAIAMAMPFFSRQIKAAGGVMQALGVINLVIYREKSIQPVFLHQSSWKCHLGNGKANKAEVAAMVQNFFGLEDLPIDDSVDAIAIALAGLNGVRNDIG
Test: EMSA; EMSA: 50 nM 5'-FAM DNA, 0-2000 nM protein, 20 mM HEPES pH 7.5, 50 mM NaCl, 1 mM DTT, 10% DMSO, 1% glycerol, no metal listed, 37 C 60 min; 5% native PAGE in 1x TAE
Conditions: protein: recombinant; tags: His-SUMO N-terminal, removed (purified as WT); chain copies: 2; label: 5'-FAM on one strand; four-way junction, 13 bp homologous core

B1: 4Jh (structured_DNA)
DNA 1: GCAATTCGATCGTTGACATCTCGCGTGCTCGGTCAATCGGCAGATGCGGAGTGAAGTTCCAACGTTCGGC
DNA 2: CCTGCAGGATGGTAGGACGGCCTCGCAATCCCGATTGACCGAGCACGCGAGATGTCAACGATCGAATTGC
DNA 3: GCCGAACGTTGGAACTTCACTCCGCATCTGCCGATTGACCGAGTGGCGTGTTTCTGGTGGTTCCTAGGTC
DNA 4: GACCTAGGAACCACCAGAAACACGCCACTCGGTCAATCGGGATTGCGAGGCCGTCCTACCATCCTGCAGG
B1: no binding.
